Source: the RNAGym collection of RNA variant scans (doi:10.1093/molbev/msab373)

B1: Azoarcus group I ribozyme (parent)
chain: GUGCCUUGCGCCGGGAAACCACGCAAGGGAUGGUGUCAAAUUCGGCGAAACCUAAGCGCCCGCCCGGGCGUAUGGCAACGCCGAGCCAAGCUUCGGCGCCUGCGCCGAUGAAGGUGUAGAGACUAGACGGCACCCACCUAAGGCAAACGCUAUGGUGAAGGCAUAGUCCAGGGAGUGGCGAAAGUCACACAAACCGG

Variants of: B1
Assay: reverse-splicing fitness (ratio to wild type); higher = more active; in vitro selection; Mg2+ level not given
Summary of the method: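 An in vitro group I ribozyme library with randomized positions was T7-transcribed and gel-purified. In triplicate, 10 pmol RNA in EPPS pH 7.5 was reacted with 50 pmoles of a 30-nt RNA substrate for 1 h at 37 °C across several added MgCl2 levels (1–48 mM), then stopped with EDTA. Products were reverse transcribed from a substrate-complementary primer, PCR-amplified and sequenced (HiSeq 4000). Fitness is a variant's read proportion after selection over that before, normalised to wild type.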

Row | Variant | reverse-splicing fitness
1 | GUGCCUUGCGCCGGGAAACCACGCAAGGGAUGGUGUCAAAUUCGGCGAAACCUAAGCGCCCGCCCGGGCGUAUGGCAACGCCGAGCCAAGCUUCGGCGCCUGCGCCGAUGCAGGUGUAGUGACUAGACGGCACCCACCUAAGGCCAACGCUAUGGUGAAGGCAUAGUCCAGGGAGUGGCGAAAGUCACACAAACCGG [A111C A120U A145C] | 0.598
2 | GUGCCUUGCGCCGGGAAACCACGCAAGGGAUGGUGUCAAAUUCGGCGAAACCUAAGCGCCCGCCCGGGCGUAUGGCAACGCCGAGCCAAGCUUCGGCGCCUGCGCCGAUGCAGGUGUAGUGACUAGACGGCACCCACCUAAGGCCAACGAUAUGGUGAAGGCAUAGUCCAGGGAGUGGCGAAAGUCACACAAACCGG [A111C A120U A145C C150A] | 0.0314
3 | GUGCCUUGCGCCGGGAAACCACGCAAGGGAUGGUGUCAAAUUCGGCGAAACCUAAGCGCCCGCCCGGGCGUAUGGCAACGCCGAGCCAAGCUUCGGCGCCUGCGCCGAUGCAGGUGUAGUGACUAGACGGCACCCACCUAAGGCCAACGAUAUGGUGAAGGCAUAGUCAAGGGAGUGGCGAAAGUCACACAAACCGG [A111C A120U A145C C150A C169A] | 0.00208
4 | GUGCCUUGCGCCGGGAAACCACGCAAGGGAUGGUGUCAAAUUCGGCGAAACCUAAGCGCCCGCCCGGGCGUAUGGCAACGCCGAGCCAAGCUUCGGCGCCUGCGCCGAUGCAGGUGUAGUGACUAGACGGCACCCACCUAAGGCCAACGAUAUGGUGAAGGCAUAGUCAAGGGAGAGGCGAAAGUCACACAAACCGG [A111C A120U A145C C150A C169A U176A] | 0.00259
5 | GUGCCUUGCGCCGGGAAACCACGCAAGGGAUGGUGUCAAAUUCGGCGAAACCUAAGCGCCCGCCCGGGCGUAUGGCAACGCCGAGCCAAGCUUCGGCGCCUGCGCCGAUGCAGGUGUAGUGACUAGACGGCACCCACCUAAGGCCAACGAUAUGGUGAAGGCAUAGUCAAGGGAGCGGCGAAAGUCACACAAACCGG [A111C A120U A145C C150A C169A U176C] | 0.00233
6 | GUGCCUUGCGCCGGGAAACCACGCAAGGGAUGGUGUCAAAUUCGGCGAAACCUAAGCGCCCGCCCGGGCGUAUGGCAACGCCGAGCCAAGCUUCGGCGCCUGCGCCGAUGCAGGUGUAGUGACUAGACGGCACCCACCUAAGGCCAACGAUAUGGUGAAGGCAUAGUCAAGGGAGGGGCGAAAGUCACACAAACCGG [A111C A120U A145C C150A C169A U176G] | 0.00226
7 | GUGCCUUGCGCCGGGAAACCACGCAAGGGAUGGUGUCAAAUUCGGCGAAACCUAAGCGCCCGCCCGGGCGUAUGGCAACGCCGAGCCAAGCUUCGGCGCCUGCGCCGAUGCAGGUGUAGUGACUAGACGGCACCCACCUAAGGCCAACGAUAUGGUGAAGGCAUAGUCGAGGGAGUGGCGAAAGUCACACAAACCGG [A111C A120U A145C C150A C169G] | 0.0044
8 | GUGCCUUGCGCCGGGAAACCACGCAAGGGAUGGUGUCAAAUUCGGCGAAACCUAAGCGCCCGCCCGGGCGUAUGGCAACGCCGAGCCAAGCUUCGGCGCCUGCGCCGAUGCAGGUGUAGUGACUAGACGGCACCCACCUAAGGCCAACGAUAUGGUGAAGGCAUAGUCGAGGGAGAGGCGAAAGUCACACAAACCGG [A111C A120U A145C C150A C169G U176A] | 0.00305
9 | GUGCCUUGCGCCGGGAAACCACGCAAGGGAUGGUGUCAAAUUCGGCGAAACCUAAGCGCCCGCCCGGGCGUAUGGCAACGCCGAGCCAAGCUUCGGCGCCUGCGCCGAUGCAGGUGUAGUGACUAGACGGCACCCACCUAAGGCCAACGAUAUGGUGAAGGCAUAGUCGAGGGAGCGGCGAAAGUCACACAAACCGG [A111C A120U A145C C150A C169G U176C] | 0.00302
10 | GUGCCUUGCGCCGGGAAACCACGCAAGGGAUGGUGUCAAAUUCGGCGAAACCUAAGCGCCCGCCCGGGCGUAUGGCAACGCCGAGCCAAGCUUCGGCGCCUGCGCCGAUGCAGGUGUAGUGACUAGACGGCACCCACCUAAGGCCAACGAUAUGGUGAAGGCAUAGUCGAGGGAGGGGCGAAAGUCACACAAACCGG [A111C A120U A145C C150A C169G U176G] | 0.0024
11 | GUGCCUUGCGCCGGGAAACCACGCAAGGGAUGGUGUCAAAUUCGGCGAAACCUAAGCGCCCGCCCGGGCGUAUGGCAACGCCGAGCCAAGCUUCGGCGCCUGCGCCGAUGCAGGUGUAGUGACUAGACGGCACCCACCUAAGGCCAACGAUAUGGUGAAGGCAUAGUCUAGGGAGUGGCGAAAGUCACACAAACCGG [A111C A120U A145C C150A C169U] | 0.00533
12 | GUGCCUUGCGCCGGGAAACCACGCAAGGGAUGGUGUCAAAUUCGGCGAAACCUAAGCGCCCGCCCGGGCGUAUGGCAACGCCGAGCCAAGCUUCGGCGCCUGCGCCGAUGCAGGUGUAGUGACUAGACGGCACCCACCUAAGGCCAACGAUAUGGUGAAGGCAUAGUCUAGGGAGAGGCGAAAGUCACACAAACCGG [A111C A120U A145C C150A C169U U176A] | 0.00457
13 | GUGCCUUGCGCCGGGAAACCACGCAAGGGAUGGUGUCAAAUUCGGCGAAACCUAAGCGCCCGCCCGGGCGUAUGGCAACGCCGAGCCAAGCUUCGGCGCCUGCGCCGAUGCAGGUGUAGUGACUAGACGGCACCCACCUAAGGCCAACGAUAUGGUGAAGGCAUAGUCUAGGGAGCGGCGAAAGUCACACAAACCGG [A111C A120U A145C C150A C169U U176C] | 0.00283
14 | GUGCCUUGCGCCGGGAAACCACGCAAGGGAUGGUGUCAAAUUCGGCGAAACCUAAGCGCCCGCCCGGGCGUAUGGCAACGCCGAGCCAAGCUUCGGCGCCUGCGCCGAUGCAGGUGUAGUGACUAGACGGCACCCACCUAAGGCCAACGAUAUGGUGAAGGCAUAGUCUAGGGAGGGGCGAAAGUCACACAAACCGG [A111C A120U A145C C150A C169U U176G] | 0.00242
15 | GUGCCUUGCGCCGGGAAACCACGCAAGGGAUGGUGUCAAAUUCGGCGAAACCUAAGCGCCCGCCCGGGCGUAUGGCAACGCCGAGCCAAGCUUCGGCGCCUGCGCCGAUGCAGGUGUAGUGACUAGACGGCACCCACCUAAGGCCAACGAUAUGGUGAAGGCAUAGUCCAGGGAGAGGCGAAAGUCACACAAACCGG [A111C A120U A145C C150A U176A] | 0.016
